This note sets out measurements from the RNAGym collection of RNA variant scans (doi:10.7554/elife.90254).

The labels stand for the following.
B1: LINE1-full (parent)
chain: UACGUAGGUGGUUUUCCCCUGAUAGUGCUAAGGGGGCCUGGAAGUUUGGACUGGGCAGAGCUCAACACAGCGUGGCAAAGUGGCUGUGGCUAGACUGCCUCUCUGGAUUCCUCGUCACUCAGCAGGGCAUCUCUGAGAGAAAUGCC

In the data set the parent is B1. Nature of the data set: self-cleavage, relative activity (ratio to wild type); higher = more cleavage; in vitro, sequencing; the parent is a self-cleaving ribozyme.
Consider A57U A124U, for which the self-cleavage is 0.09. For the variant G54A A65U, the self-cleavage turned out to be 0.1. As for G54A A65G, the figure is 0.02. Regarding G54U A136G, the self-cleavage turned out to be 1. The value for A57G U87C was 0.11; that for A57G U87G was 0.14; that for C56U U100C was 0.44. For A57G G83C, the self-cleavage was 0.17.

G53U A64U: the self-cleavage was 0.45. As to G54C A117U, the self-cleavage is 1.23. On to G53A A67G, for which the self-cleavage amounted to 0.38. As to G53U C99U, the self-cleavage was found to be 0.13. Turning to A57G G139U, the self-cleavage came out at 0.48. On to A57G G139A, for which the self-cleavage worked out at 0.75. The value for A57U A77U was 0.05. In the case of G55A A94G, the self-cleavage stood at 0.2.

Turning to A57U G88A, the self-cleavage is 0.04.

In the case of G55U U85A, the self-cleavage worked out at 0.03. The value for U52G A136U was 1.1. On to U52G A136G, for which the self-cleavage is 0.88.

On to G53A G135U, for which the self-cleavage turned out to be 0.82. G54U G114U: the self-cleavage amounted to 0.74. Turning to G54C U143A, the self-cleavage worked out at 1.3.

On to U52G G80C, for which the self-cleavage stood at 0.97. As for G54A U143A, the figure is 0.45; as for G54A G88A, 0.08; as for A57U C66G, 0.05. Regarding A57G U85C, the self-cleavage came to 0.16. In the case of A57G U85A, the self-cleavage was determined as 0.13. In the case of A57G U85G, the self-cleavage came to 0.23. The value for G54A G75C was 0.33; that for G54U C71U was 0.16. As for G53A U96A, the figure is 0.06. In the case of G53U G60U, the self-cleavage amounted to 0.03. G55C U115C: the self-cleavage turned out to be 0.26. For U52G U96C, the self-cleavage was determined as 0.55. As for A57G G105A, the figure is 0.48; as for G54U G105A, 0.87; as for G55A U81A, 0.08. In the case of G54A U100C, the self-cleavage stood at 0.31.

Regarding G54A U100A, the self-cleavage is 0.16. Consider C56A U96C, for which the self-cleavage turned out to be 0.05. A57G A94U: the self-cleavage is 0.19. The value for G55C A107U was 0.08; that for C56U A59U was 0.11; that for G54U A65G was 0.03.

G53A U102A: the self-cleavage came out at 1.3.

For the variant G53A U102G, the self-cleavage was determined as 0.68. Regarding A57G U96G, the self-cleavage was determined as 0.

As for G54A U109A, the self-cleavage was determined as 0.35. As for A57U A65G, the self-cleavage worked out at 0.07.

For G54U A138U, the self-cleavage turned out to be 1.01. Take C56U C71U: the self-cleavage is 0.07.

On to G55U U134C, for which the self-cleavage stood at 0.29. In the case of A57U U104A, the self-cleavage was determined as 0.06. In the case of C56A U104C, the self-cleavage stood at 0.1.

For G53U A141G, the self-cleavage is 1.58. G55A A140G: the self-cleavage is 0.17. For G55C C120U, the self-cleavage was determined as 0.27.

Turning to G54A A136U, the self-cleavage was 0.67. For the variant G54A A136G, the self-cleavage amounted to 0.62. For A57U A59G, the self-cleavage was determined as 0.05. Regarding G53A A64G, the self-cleavage is 0.12.

U52C U143A: the self-cleavage was 1.84. Turning to C56U A117C, the self-cleavage came out at 0.5. With U52G A59G, the self-cleavage came out at 0.34. A57G U100A: the self-cleavage came to 0.3. G53A A69U: the self-cleavage was 0.07. Consider G53A A77G, for which the self-cleavage came to 1.82.

On to G53U U81A, for which the self-cleavage was 1.52. Regarding A57U A69G, the self-cleavage is 0.08.

For A57U A69U, the self-cleavage worked out at 0.

On to G54A A141G, for which the self-cleavage stood at 0.8.

As for A57U C90U, the self-cleavage is 0.02. Regarding U52G U85C, the self-cleavage turned out to be 0.15. On to C56U A136U, for which the self-cleavage stood at 0.13. Take A57U U102A: the self-cleavage was 0.08. The value for A57G C98U was 0.19; that for G55A A138G was 0.51; that for G54A A69G was 0.18. In the case of A57C A138G, the self-cleavage came out at 0.22.

With U52G A79G, the self-cleavage is 1.31. U52G A69U: the self-cleavage came to 0.1.

For G55A A107G, the self-cleavage was 0.22. Regarding G53U U134A, the self-cleavage is 0.68.

With G53U A142G, the self-cleavage was determined as 1.2.

Turning to C56U C111U, the self-cleavage was 0.19. As for U52G U102C, the self-cleavage was determined as 1.87. For G55A U104C, the self-cleavage was 1.02. Regarding C56A U100C, the self-cleavage worked out at 0.1. The value for A57U G126A was 0.07. Regarding G55A C95U, the self-cleavage came out at 0.11.

In the case of G53U U130A, the self-cleavage was determined as 1.53.

For the variant G53A A124G, the self-cleavage is 0.77. In the case of A57U G127A, the self-cleavage is 0.1. On to A57U A67U, for which the self-cleavage worked out at 0.02.

In the case of A57U G83A, the self-cleavage is 0.03.

Take A57U A129G: the self-cleavage was 0.13.

In the case of A57U A117U, the self-cleavage amounted to 0.13. The value for A57U A117G was 0.09; that for A57U A117C was 0.28. For the variant A57G U112C, the self-cleavage stood at 0.68. Take A57G C66U: the self-cleavage was determined as 0.05.

U52C U130C: the self-cleavage is 1.84.

As for U52C U130A, the self-cleavage is 1.04. On to C56U U134G, for which the self-cleavage was found to be 0.28. On to A57C U104A, for which the self-cleavage was 0.18. As for G53U U119A, the figure is 1.33; as for U52G A94U, 0.42.

Take G54C C61U: the self-cleavage is 0.05. As for G53A U81C, the figure is 0.67; as for G54U U62A, 0.02. Take A57G C113U: the self-cleavage was determined as 0.29. On to A57G G58A, for which the self-cleavage was found to be 0.03. Regarding G55C C76A, the self-cleavage turned out to be 0.1. The value for G54U C90A was 0.06; that for G53A A136G was 1.71. Turning to G55U U132C, the self-cleavage is 0.16.

As for A57U G58U, the self-cleavage came out at 0.04. In the case of A57G G60C, the self-cleavage turned out to be 0.11. As for U52C U134C, the figure is 1.01; as for U52C U134G, 2.76; as for G54U U143C, 1.07.

Consider A57C U102C, for which the self-cleavage is 0.1. For A57C A69U, the self-cleavage came out at 0.08. Take G54A U132C: the self-cleavage was determined as 0.53. Turning to A57C U132G, the self-cleavage worked out at 0. On to A57C U132A, for which the self-cleavage was 0. As for C56U U87C, the figure is 0.11; as for G53U U85A, 0.11. As for G53C A65U, the figure is 0.2. Take G53U A65C: the self-cleavage is 0.07. Turning to G53U A140C, the self-cleavage came to 0.8.

On to G53A A107G, for which the self-cleavage came to 1.28. Turning to G55A A57G, the self-cleavage came out at 0.15. In the case of G54A A92G, the self-cleavage came out at 0.04. As for G53A U109C, the self-cleavage was determined as 0.27. The value for G53U A77G was 2.05; that for G54U U100C was 0.22.

Take C56U U115C: the self-cleavage was found to be 0.19. In the case of A57G U130A, the self-cleavage was 1.27. Turning to A57G U130C, the self-cleavage was determined as 1.3. The value for G55C A141G was 0.55. The value for A57G U91C was 0.4. The value for A57G U91A was 0.34.

As for G54U U81A, the self-cleavage stood at 0.39. In the case of U52C U132C, the self-cleavage turned out to be 1.75.

For A57G A136U, the self-cleavage was found to be 0.95. The value for A57U C84A was 0.21; that for A57U C63A was 0.04. Regarding U52G U73A, the self-cleavage was determined as 1.74. Take U52G A57G: the self-cleavage turned out to be 0.82. On to A57U G106U, for which the self-cleavage turned out to be 0.09. Take A57C A121U: the self-cleavage stood at 0.03. For A57G C84U, the self-cleavage came to 0.11. Turning to G54A G82A, the self-cleavage worked out at 0.9. As for G53A C61U, the figure is 0.03. With A57U A138U, the self-cleavage is 0.12. Regarding A57G A78G, the self-cleavage is 0.65. The value for A57G U134A was 0.62. For A57G U134G, the self-cleavage was 0.78. As for A57G U134C, the figure is 0.93. Regarding G55C A117C, the self-cleavage turned out to be 0.42. On to A57C U119A, for which the self-cleavage amounted to 0.06. In the case of G54A A78U, the self-cleavage came out at 0.79. As for A57G C99U, the self-cleavage came out at 0.13. A57G C99A: the self-cleavage is 0.2.
